In US9226950B2, “Method and composition for treating diabetes mellitus” (National Dong Hwa University, priority 2013, dated 2016):

Tests used:
Insr = biological target: T1, Insr (Rattus norvegicus, UniProt P15127); test: Phosphorylation of insulin receptors (Tyr1158/Tyr1162/Tyr1163) in L6 cells, Western blot; type: cell-based; conditions: 10 μM insulin (Ins) alone, 5 min, FIG. 1(a)
T1 construct: L6 cells were fully differentiated with α-MEM supplemented with 2% FBS for 5 days to myotubes; endogenous in cells; host or cells: L6 myoblasts differentiated to myotubes
Protocol: (§1) […] muscle myoblast cells (L6) was a generous gift from Professor Hitoshi Ashida's Lab. (Kobe University, Kobe, Japan). The cells were grown and maintained in α-minimal essential medium (α-MEM, 12000022, GIBCO, CA, USA) containing 10% fetal bovine serum (FBS, GIBCO) and 1% penicillin streptomycin (GIBCO) in a cell culture incubator with 5% CO2 at 37° C. Prior to the following experiments, the cells were seeded and cultured at a density of 8×10^3 cells per well in 96-well plates or 2.5×10^5 cells per well in 6-well plates. After the myoblasts achieved 80% confluence, the cells were incubated for 5 days in the α-MEM supplemented with 2% FBS to induce differentiation to myotubes.
L6 cells were fully differentiated with α-MEM supplemented with 2% FBS for 5 days to myotubes. The cells were washed twice with Phosphate Buffered Saline (PBS) containing 0.1% BSA and subsequently incubated α-MEM containing 0.25% BSA with or without 100 nM of S961, and treated with or without 100 μM of Tetracosanol for 90 min. Then, the cells were treated with or without 10 μM of insulin for 5 min. […] The levels of the proteins including phospho-Insulin receptors (Tyr1158/Tyr1162/Tyr1163) and Insulin receptor (Cell Signaling, Boston, Mass., USA) were detected and evaluated by Western blot with primary antibody.
The cells after treatments were collected and washed twice in cold KRH buffer, and then lysed in ice-cold RIPA buffer incubation at 4° C. for 60 min. After centrifugation at 12,000×g for 30 min at 4° C., the supernatant was kept and quantified by Bradford protein assay (Bio-Rad, Hercules, Calif., USA). […] The signals were monitored using Western Lightning™ Plus-ECL (Perkin Elmer Life Sciences) and the PVDF membrane was exposed to Luminescent image analyzer (LAS)-3000 (Fujifilm, Minato, Tokyo, Japan). Acquired data were analyzed and compared the difference among treatments. […]

AKT = test: Phosphorylation of AKT on Thr308 in L6 cells, Western blot; type: cell-based, rat; conditions: 10 μM insulin (Ins) alone, 30 min, FIG. 1(b)
Protocol: as §1
The L6 cells were fully differentiated with α-MEM supplemented with 2% FBS for 5 days to myotubes. The cells were washed twice with PBS containing 0.1% BSA and subsequently incubated α-MEM containing 0.25% BSA with or without 100 nM of S961, and then treated with or without 100 μM of Tetracosanol for 90 min. Then, the cells were treated with or without 10 μM of insulin for 30 min. Finally, the cells were collected and washed twice in KRH buffer, then lysed in ice-cold RIPA buffer for 60 min. After centrifugation at 12,000×g for 30 min. at 4° C., the supernatant was kept at −80° C. until use. The levels of the proteins including phospho-AKT (Thr308), AKT, phospho-AMPK (Thr172), and AMPK (Cell Signaling) were detected and evaluated by Western blot with primary antibody.
The cells after treatments were collected and washed twice in cold KRH buffer, and then lysed in ice-cold RIPA buffer incubation at 4° C. for 60 min. After centrifugation at 12,000×g for 30 min at 4° C., the supernatant was kept and quantified by Bradford protein assay (Bio-Rad, Hercules, Calif., USA). The proteins were separated using sodium dodecyl sulfate polyacrylamide gel electrophoresis (SDS-PAGE) and subsequently transferred to PVDF (Perkin Elmer Life Sciences, Boston, Mass., USA) membrane. […] The signals were monitored using Western Lightning™ Plus-ECL (Perkin Elmer Life Sciences) and the PVDF membrane was exposed to Luminescent image analyzer (LAS)-3000 (Fujifilm, Minato, Tokyo, Japan). Acquired data were analyzed and compared the difference among treatments.
The differentiated L6 cells were incubated with 100 μM of tetracosanol (Tet) at 37° C. for 90 min, and then treated 10 μM of insulin (Ins) at 37° C. for 5 or 30 min. The cell lysates were separated by SDS-PAGE and blotted 5 min for phospho-Insr on Tyr1158, 1162, and 1163 (Insr, 100 kDa), and phospho-AKT on Thr308 protein level was measured at 30 min in Western blot analysis.

T1 sequence (P15127 27-759 limits assumed): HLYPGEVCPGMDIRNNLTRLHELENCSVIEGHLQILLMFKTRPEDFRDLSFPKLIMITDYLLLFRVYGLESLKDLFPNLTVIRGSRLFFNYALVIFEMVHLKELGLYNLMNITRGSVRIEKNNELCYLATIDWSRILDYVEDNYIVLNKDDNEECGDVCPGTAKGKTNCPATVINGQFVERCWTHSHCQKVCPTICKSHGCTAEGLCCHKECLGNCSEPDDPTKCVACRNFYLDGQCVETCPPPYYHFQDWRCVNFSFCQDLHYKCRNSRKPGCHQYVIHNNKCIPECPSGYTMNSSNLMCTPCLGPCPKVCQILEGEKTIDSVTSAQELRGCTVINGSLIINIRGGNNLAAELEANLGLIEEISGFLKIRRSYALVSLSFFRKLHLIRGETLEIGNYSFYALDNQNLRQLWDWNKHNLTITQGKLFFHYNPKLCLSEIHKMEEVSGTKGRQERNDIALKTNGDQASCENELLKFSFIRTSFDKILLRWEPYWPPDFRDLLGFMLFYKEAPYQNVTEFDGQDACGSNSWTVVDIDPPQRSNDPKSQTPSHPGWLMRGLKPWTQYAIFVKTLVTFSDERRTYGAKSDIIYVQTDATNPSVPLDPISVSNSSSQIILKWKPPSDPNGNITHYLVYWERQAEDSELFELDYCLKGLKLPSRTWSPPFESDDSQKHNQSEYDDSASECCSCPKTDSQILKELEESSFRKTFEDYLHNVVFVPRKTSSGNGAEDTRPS
T1 sequence (P15127 764-1383 limits assumed): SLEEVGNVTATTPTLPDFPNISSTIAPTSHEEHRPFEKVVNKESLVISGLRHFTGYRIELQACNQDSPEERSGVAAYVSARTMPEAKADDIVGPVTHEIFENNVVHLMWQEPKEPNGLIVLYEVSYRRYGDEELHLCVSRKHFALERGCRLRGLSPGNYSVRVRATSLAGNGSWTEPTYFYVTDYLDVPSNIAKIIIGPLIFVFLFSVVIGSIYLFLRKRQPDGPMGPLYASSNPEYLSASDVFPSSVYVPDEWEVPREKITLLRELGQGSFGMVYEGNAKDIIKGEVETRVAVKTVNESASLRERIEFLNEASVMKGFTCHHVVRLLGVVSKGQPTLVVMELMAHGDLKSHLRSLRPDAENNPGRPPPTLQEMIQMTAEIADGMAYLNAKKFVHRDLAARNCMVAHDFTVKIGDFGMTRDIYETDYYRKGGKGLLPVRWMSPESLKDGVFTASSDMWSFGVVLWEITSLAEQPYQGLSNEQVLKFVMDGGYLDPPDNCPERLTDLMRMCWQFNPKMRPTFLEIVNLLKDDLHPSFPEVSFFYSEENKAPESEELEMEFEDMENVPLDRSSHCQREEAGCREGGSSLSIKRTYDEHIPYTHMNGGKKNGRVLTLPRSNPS

phosphorylation of phospho-Insr on Tyr1158, 1162, and 1163 (Insr): tended to be enhanced
Substance: insulin: Insulin purchased from Novo-Nordisk [reference compound]
phospho-AKT on Thr 308 (AKT): induced the phospho-AKT on Thr 308
